# PMC11342371
# Assays:
# [1] = target: human C-reactive protein (human) (UniProt P02741); experiment: mass photometry; in ammonium acetate; decamer to pentamers
# [2] = target: human C-reactive protein (human) (UniProt P02741); experiment: native MS; 0.5, 1 and 7 uM, ammonium acetate; decamer to pentamers
# [3] = target: human C-reactive protein (human) (UniProt P02741); experiment: mass photometry; nanohole-PEG surface (10 ug cm^-2 of 100 nm SNPs), PBS pH 7.2, across different analyte concentrations (500 nM shown), at equilibrium; decamer to pentamers, KD = [monomer]^2/[dimer] with the pentamer as the monomer
substance,measurement,setting,value
human C-reactive protein (from UniProt P02741 19-224) (natural protein),Kd,[1],3400 nM
same,Kd,[2],2460 nM
same,Kd,[3],2600 nM
same,stoichiometry N,[3],10
